Measured values as given in patent US20180105569A1 (INDIANA UNIVERSITY RESEARCH AND TECHNOLOGY, published 2018).
Substitutions are numbered along the chain they refer to. Numbered stars: 1 amine (or outer) side, 2 acyl side, 3 side chain; on linkers, the order of the positions; unused ones are H or OH. Square brackets hold non-standard residues; d marks the D form. Side chains are listed from the residue outwards. Ends that are not written are not given here. * marks the point of attachment. β2His = Beta2-His (beta2-homo amino acid form of His; γGlu = O=C(O)[C@H](CCC(=O)[*:2])N[*:1]; Desaminohistidyl = O=C(CCc1c[nH]cn1)*; Desaminotyrosyl = O=C(CCc1ccc(O)cc1)*; Palmitoyl = CCCCCCCCCCCCCCCC(=O)*; dthioAla = not defined here; thioAla = not defined here; Orn = NCCC[C@H](N)C(=O)O; Aib = CC(C)(N)C(=O)O; Sar = CNCC(=O)O

B1: peptide of SEQ ID NO: 145 (peptide)
peptide: XAEGTFTSDKSKYLDERAAQDFVQWLLEGGPSSGAPPPS
modifications: position 1 Des-NH2-Tyr (desamino L-Tyr); position 2 Ala; C-terminal amide; other non-coded or acylated residues as in the sequence listing
B2: peptide of SEQ ID NO: 155 (peptide)
peptide: Ac-YAQGTFTSDK([γGlu-Palmitoyl])SKYLDERAAQDFVQWLLEGGPSSGAPPPS-NH2
B3: peptide of SEQ ID NO: 158 (peptide)
peptide: Ac-YA[dQ]GTFTSDK([γGlu-Palmitoyl])SKYLDERAAQDFVQWLLEGGPSSGAPPPS-NH2
B4: peptide of SEQ ID NO: 30 (peptide)
peptide: Ac-[Orn]AQGTFTSDK([γGlu-Palmitoyl])SKYLDERAAQDFVQWLLEGGPSSGAPPPS-NH2
B5: peptide of SEQ ID NO: 11 (peptide)
peptide: [Desaminotyrosyl]AQGTFTSDK([γGlu-Palmitoyl])SKYLDERAAQDFVQWLLEGGPSSGAPPPS-NH2
B6: peptide of SEQ ID NO: 17 (peptide)
peptide: Ac-[dthioAla]AQGTFTSDK([γGlu-Palmitoyl])SKYLDERAAQDFVQWLLEGGPSSGAPPPS-NH2
modifications: reading uncertain
B7: peptide of SEQ ID NO: 23 (peptide)
peptide: [dH]GQGTFTSDK([γGlu-Palmitoyl])SKYLDERAAQDFVQWLLEGGPSSGAPPPS-NH2
B8: peptide of SEQ ID NO: 16 (peptide)
peptide: [dH]AQGTFTSDK([γGlu-Palmitoyl])SKYLDERAAQDFVQWLLEGGPSSGAPPPS-NH2
B9: peptide of SEQ ID NO: 25 (peptide)
peptide: [β2His]AQGTFTSDK([γGlu-Palmitoyl])SKYLDERAAQDFVQWLLEGGPSSGAPPPS-NH2
B10: peptide of SEQ ID NO: 15 (peptide)
peptide: [dY]AQGTFTSDK([γGlu-Palmitoyl])SKYLDERAAQDFVQWLLEGGPSSGAPPPS-NH2
B11: peptide of SEQ ID NO: 31 (peptide)
peptide: [Desaminohistidyl]GQGTFTSDK([γGlu-Palmitoyl])SKYLDERAAQDFVQWLLEGGPSSGAPPPS-NH2
B12: peptide of SEQ ID NO: 14 (peptide)
peptide: Ac-[dY]GQGTFTSDK([γGlu-Palmitoyl])SKYLDERAAQDFVQWLLEGGPSSGAPPPS-NH2
B13: peptide of SEQ ID NO: 13 (peptide)
peptide: Ac-[dH]AQGTFTSDK([γGlu-Palmitoyl])SKYLDERAAQDFVQWLLEGGPSSGAPPPS-NH2
B14: peptide of SEQ ID NO: 12 (peptide)
peptide: Ac-[dY]AQGTFTSDK([γGlu-Palmitoyl])SKYLDERAAQDFVQWLLEGGPSSGAPPPS-NH2
B15: peptide of SEQ ID NO: 34 (peptide)
peptide: Ac-QGQGTFTSDK([γGlu-Palmitoyl])SKYLDERAAQDFVQWLLEGGPSSGAPPPS-NH2
B16: peptide of SEQ ID NO: 26 (peptide)
peptide: B1 peptide with E3Q
modifications: position 1 His; position 2 β-Ala; C-terminal amide; other non-coded or acylated residues as in the sequence listing
B17: peptide of SEQ ID NO: 37 (peptide)
peptide: H[Aib]QGTFTSDK([γGlu-Palmitoyl])SKYLDERAAQDFVQWLLEGGPSSGAPPPS-NH2
B18: peptide of SEQ ID NO: 28 (peptide)
peptide: H[Sar]QGTFTSDK([γGlu-Palmitoyl])SKYLDERAAQDFVQWLLEGGPSSGAPPPS-NH2
B19: peptide of SEQ ID NO: 22 (peptide)
peptide: [Desaminohistidyl]AQGTFTSDK([γGlu-Palmitoyl])SKYLDERAAQDFVQWLLEGGPSSGAPPPS-NH2
B20: peptide of SEQ ID NO: 21 (peptide)
peptide: Ac-[thioAla]AQGTFTSDK([γGlu-Palmitoyl])SKYLDERAAQDFVQWLLEGGPSSGAPPPS-NH2
modifications: reading uncertain
B21: peptide of SEQ ID NO: 29 (peptide)
peptide: [thioAla]GQGTFTSDK([γGlu-Palmitoyl])SKYLDERAAQDFVQWLLEGGPSSGAPPPS-NH2
modifications: reading uncertain
B22: peptide of SEQ ID NO: 10 (peptide)
peptide: H[Aib]QGTFTSDK([γGlu-Palmitoyl])SKYLDERAAQDFVQWLLDGGPSSGAPPPS-NH2
B23: peptide of SEQ ID NO: 27 (peptide)
peptide: [dH]PQGTFTSDK([γGlu-Palmitoyl])SKYLDERAAQDFVQWLLEGGPSSGAPPPS-NH2
B24: peptide of SEQ ID NO: 33 (peptide)
peptide: [thioAla]PQGTFTSDK([γGlu-Palmitoyl])SKYLDERAAQDFVQWLLEGGPSSGAPPPS-NH2
modifications: reading uncertain

Each binder was assayed against T1, glucagon receptor (UniProt P47871 26-477, limits assumed) (assay: cell-based or functional assay).
T1 sequence (P47871 26-477 limits assumed): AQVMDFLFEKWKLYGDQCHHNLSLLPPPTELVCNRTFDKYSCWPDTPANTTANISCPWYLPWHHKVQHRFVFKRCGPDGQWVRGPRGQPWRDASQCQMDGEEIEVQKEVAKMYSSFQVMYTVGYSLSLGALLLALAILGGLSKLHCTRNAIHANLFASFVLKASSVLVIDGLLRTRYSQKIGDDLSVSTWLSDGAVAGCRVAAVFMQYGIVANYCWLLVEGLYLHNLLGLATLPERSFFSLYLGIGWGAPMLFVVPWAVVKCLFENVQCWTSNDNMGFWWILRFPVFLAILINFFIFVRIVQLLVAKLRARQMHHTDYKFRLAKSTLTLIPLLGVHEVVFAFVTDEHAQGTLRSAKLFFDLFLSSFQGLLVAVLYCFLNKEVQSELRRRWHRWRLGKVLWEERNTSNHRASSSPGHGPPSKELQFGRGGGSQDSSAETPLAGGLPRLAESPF

| Binder | EC50 at Glucagon Receptor (cAMP luciferase reporter, HEK293) [nM] |
| --- | --- |
| B1 | 3.73 |

Each binder was assayed against T2, GIP receptor (UniProt P48546 22-466, limits assumed) (assay: cell-based or functional assay).
T2 sequence (looked up): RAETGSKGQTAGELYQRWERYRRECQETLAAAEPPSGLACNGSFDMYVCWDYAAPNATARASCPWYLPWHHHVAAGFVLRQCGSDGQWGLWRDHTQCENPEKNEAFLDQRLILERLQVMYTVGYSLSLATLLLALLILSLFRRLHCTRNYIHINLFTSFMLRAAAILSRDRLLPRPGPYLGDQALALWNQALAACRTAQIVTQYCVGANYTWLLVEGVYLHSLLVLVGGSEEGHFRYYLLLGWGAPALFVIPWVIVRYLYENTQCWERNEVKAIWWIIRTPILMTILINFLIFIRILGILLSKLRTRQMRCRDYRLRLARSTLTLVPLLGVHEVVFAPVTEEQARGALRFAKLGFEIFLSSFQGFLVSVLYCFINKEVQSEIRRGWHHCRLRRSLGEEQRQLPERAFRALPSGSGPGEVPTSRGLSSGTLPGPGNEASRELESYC

| Binder | EC50 at GIP Receptor (cAMP luciferase reporter, HEK293) [nM] |
| --- | --- |
| B2 | 0.037 |
| B1 | 0.003 |
| B3 | 0.069 |

Molecular target: T1, glucagon receptor
Test: cell-based or functional assay
Remark: another data set of the same source

| Binder | EC50 at Glucagon Receptor (cAMP luciferase reporter, HEK293) [nM] |
| --- | --- |
| B4 | 0.635 |
| B5 | 0.016 |
| B6 | 0.008 |
| B7 | 0.015 |
| B8 | 0.01 |
| B9 | 0.024 |
| B10 | 0.05 |
| B11 | 0.022 |
| B12 | 0.005 |
| B13 | 0.002 |
| B14 | 0.007 |
| B15 | 0.163 |
| B16 | 0.095 |
| B17 | 0.009 |
| B18 | 0.022 |
| B19 | 0.017 |
| B20 | 0.006 |
| B21 | 0.038 |
| B22 | 0.005 |
| B23 | 0.034 |
| B24 | 0.121 |

Molecular target: T2, GIP receptor
Test: cell-based or functional assay
Remark: another data set of the same source

| Binder | EC50 at GIP Receptor (cAMP luciferase reporter, HEK293) [nM] |
| --- | --- |
| B4 | 0.183 |
| B5 | 0.002 |
| B6 | 0.011 |
| B7 | 0.043 |
| B8 | 0.01 |
| B9 | 0.064 |
| B10 | 0.008 |
| B11 | 0.226 |
| B12 | 0.005 |
| B13 | 0.004 |
| B14 | 0.002 |
| B15 | 0.436 |
| B16 | 0.071 |
| B17 | 0.003 |
| B18 | 0.081 |
| B19 | 0.041 |
| B20 | 0.04 |
| B21 | 0.095 |
| B22 | 0.003 |
| B23 | 0.08 |
| B24 | 0.43 |

The binders below were run against GLP-1 receptor (UniProt P43220 24-463, limits assumed) (assay: cell-based or functional assay).

| Binder | EC50 at GLP-1 Receptor (cAMP luciferase reporter, HEK293) [nM] |
| --- | --- |
| B4 | 0.002 |
| B5 | 0.002 |
| B6 | 0.005 |
| B7 | 0.003 |
| B8 | 0.002 |
| B9 | 0.003 |
| B10 | 0.004 |
| B11 | 0.003 |
| B12 | 0.022 |
| B13 | 0.004 |
| B14 | 0.003 |
| B15 | 0.611 |
| B16 | 0.002 |
| B17 | 0.006 |
| B18 | 0.002 |
| B19 | 0.003 |
| B20 | 0.026 |
| B21 | 0.007 |
| B22 | 0.005 |
| B23 | 0.003 |
| B24 | 0.005 |
